Assay results from IntAct's records for PubMed 17347647.

B1: Rho GTPase-activating protein 21 (Homo sapiens), Q5T5U3 (parent)
chain: MMATRRTGLSEGDGDKLKACEVSKNKDGKEQSETVSLSEDETFSWPGPKTVTLKRTSQGFGFTLRHFIVYPPESAIQFSYKDEENGNRGGKQRNRLEPMDTIFVKQVKEGGPAFEAGLCTGDRIIKVNGESVIGKTYSQVIALIQNSDTTLELSVMPKDEDILQVLQFTKDVTALAYSQDAYLKGNEAYSGNARNIPEPPPICYPWLPSAPSAMAQPVEISPPDSSLSKQQTSTPVLTQPGRAYRMEIQVPPSPTDVAKSNTAVCVCNESVRTVIVPSEKVVDLLSNRNNHTGPSHRTEEVRYGVSEQTSLKTVSRTTSPPLSIPTTHLIHQPAGSRSLEPSGILLKSGNYSGHSDGISSSRSQAVEAPSVSVNHYSPNSHQHIDWKNYKTYKEYIDNRRLHIGCRTIQERLDSLRAASQSTTDYNQVVPNRTTLQGRRRSTSHDRVPQSVQIRQRSVSQERLEDSVLMKYCPRSASQGALTSPSVSFSNHRTRSWDYIEGQDETLENVNSGTPIPDSNGEKKQTYKWSGFTEQDDRRGICERPRQQEIHKSFRGSNFTVAPSVVNSDNRRMSGRGVGSVSQFKKIPPDLKTLQSNRNFQTTCGMSLPRGISQDRSPLVKVRSNSLKAPSTHVTKPSFSQKSFVSIKDQRPVNHLHQNSLLNQQTWVRTDSAPDQQVETGKSPSLSGASAKPAPQSSENAGTSDLELPVSQRNQDLSLQEAETEQSDTLDNKEAVILREKPPSGRQTPQPLRHQSYILAVNDQETGSDTTCWLPNDARREVHIKRMEERKASSTSPPGDSLASIPFIDEPTSPSIDHDIAHIPASAVISASTSQVPSIATVPPCLTTSAPLIRRQLSHDHESVGPPSLDAQPNSKTERSKSYDEGLDDYREDAKLSFKHVSSLKGIKIADSQKSSEDSGSRKDSSSEVFSDAAKEGWLHFRPLVTDKGKRVGGSIRPWKQMYVVLRGHSLYLYKDKREQTTPSEEEQPISVNACLIDISYSETKRKNVFRLTTSDCECLFQAEDRDDMLAWIKTIQESSNLNEEDTGVTNRDLISRRIKEYNNLMSKAEQLPKTPRQSLSIRQTLLGAKSEPKTQSPHSPKEESERKLLSKDDTSPPKDKGTWRKGIPSIMRKTFEKKPTATGTFGVRLDDCPPAHTNRYIPLIVDICCKLVEERGLEYTGIYRVPGNNAAISSMQEELNKGMADIDIQDDKWRDLNVISSLLKSFFRKLPEPLFTNDKYADFIEANRKEDPLDRLKTLKRLIHDLPEHHYETLKFLSAHLKTVAENSEKNKMEPRNLAIVFGPTLVRTSEDNMTHMVTHMPDQYKIVETLIQHHDWFFTEEGAEEPLTTVQEESTVDSQPVPNIDHLLTNIGRTGVSPGDVSDSATSDSTKSKGSWGSGKDQYSRELLVSSIFAAASRKRKKPKEKAQPSSSEDELDNVFFKKENVEQCHNDTKEESKKESETLGRKQKIIIAKENSTRKDPSTTKDEKISLGKESTPSEEPSPPHNSKHNKSPTLSCRFAILKESPRSLLAQKSSHLEETGSDSGTLLSTSSQASLARFSMKKSTSPETKHSEFLANVSTITSDYSTTSSATYLTSLDSSRLSPEVQSVAESKGDEADDERSELISEGRPVETDSESEFPVFPTALTSERLFRGKLQEVTKSSRRNSEGSELSCTEGSLTSSLDSRRQLFSSHKLIECDTLSRKKSARFKSDSGSLGDAKNEKEAPSLTKVFDVMKKGKSTGSLLTPTRGESEKQEPTWKTKIADRLKLRPRAPADDMFGVGNHKVNAETAKRKSIRRRHTLGGHRDATEISVLNFWKVHEQSGERESELSAVNRLKPKCSAQDLSISDWLARERLRTSTSDLSRGEIGDPQTENPSTREIATTDTPLSLHCNTGSSSSTLASTNRPLLSIPPQSPDQINGESFQNVSKNASSAANAQPHKLSETPGSKAEFHPCL

Variants of: B1
Details: with arf1_mouse Arf1, P84078
Sequence of arf1_mouse Arf1, P84078 (P84078 whole entry): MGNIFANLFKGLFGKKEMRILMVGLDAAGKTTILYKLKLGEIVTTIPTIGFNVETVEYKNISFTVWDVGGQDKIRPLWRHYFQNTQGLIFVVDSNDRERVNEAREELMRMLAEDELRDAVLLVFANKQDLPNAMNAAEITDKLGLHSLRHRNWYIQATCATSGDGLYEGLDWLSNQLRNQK

Variant	effect of a mutation on the interaction
I1054A	decreasing interaction

Variants of: B1
Details: with arf1_mouse Arf1, P84078
Remark: another data set of the same source

Variant	effect of a mutation on the interaction
Y1000A	decreasing interaction
